From US20210054062A1 (NEURACLE SCIENCE, published 2021)

How the values were obtained:
FAM19A5-rabbit Fc [1] = target: T1, FAM19A5-rabbit Fc; assay: ELISA: FAM19A5-rFc captured on coated anti-rabbit Fc antibody, antibody at 2.8 to 2055 pM, anti-human kappa light chain-HRP, OD450. The table prints R2 of the fit as 1.000.
T1 construct: also called FAM19A5-rFc
Experimental: (§1) For the ELISA assay, the following protocol was used. Anti-rabbit Fc antibody (diluted to a concentration of 1 μg/mL in 50 mM carbonate buffer, pH 9.6) was used to coat the 96-well plates (100 μL/well) overnight at 4° C. Next, the plates were washed with the washing buffer (PBST: 0.05% Tween-20/PBS) for a total of five washes. The plates were then blocked for 1 hour at 37° C. with the blocking buffer (1% BSA/PBST) (150 μL/well) and washed again with the washing buffer. Then, 50 ng/mL of FAM19A5-rabbit Fc (also called FAM19A5-rFc) antigen diluted in blocking buffer was added to each of the wells. The plates were incubated for an additional hour at 37° C. After the incubation, the plates were washed again for a total of five washes with the washing buffer. The diluted anti-FAM19A5 antibodies in blocking buffer to different concentrations (2055 pM, 685 pM, 228.3 pM, 76.1 pM, 25.4 pM, 8.5 pM, 2.8 pM, 0 pM) were added to each of the wells, and the plates were incubated for 2 hours at 37° C. After the incubation, the plates were washed (total of five washes in the wash buffer) and then, diluted anti-human kappa light chain-HRP (1:10000 in blocking buffer) was added to the well (100 μL/well). […] This reaction was stopped using 100 μL of sulfuric acid (2N H₂SO₄), and the extent of color change was detected via absorption at 450 nm using a 96 well microplate reader (Molecular Device).

FAM19A5-rabbit Fc [2] = target: T1, FAM19A5-rabbit Fc; assay: ELISA: FAM19A5-rFc captured on coated anti-rabbit Fc antibody, antibody at 2.8 to 2055 pM, anti-human kappa light chain-HRP, OD450. The table prints R2 of the fit as 0.999.
Experimental: as §1

T1 sequence (Q7Z5A7 44-132): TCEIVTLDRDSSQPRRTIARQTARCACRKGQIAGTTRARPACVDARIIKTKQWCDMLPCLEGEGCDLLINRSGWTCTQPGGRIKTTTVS

B1: Reference anti-FAM19A5 antibody ("1-65") (antibody, V domains shown)
VH: AVTLDESGGGLQTPGGALSLVCKASGFTFSSYQMGWVRQAPGKGLEWVGVINKSGSDTSYGSAVKGRATISRDNGQSTVRLQLNNLRAEDTGTYFCAKGSASYITAATIDAWGHGTEVIVSS
VL: ALTQPSSVSANPGETVKITCSGGGSSGYGYGWYQQKSPSSAPLTVIYWNDKRPSDIPSRFSGSKSGSTHTLTITGVQAEDEAVYFCGNDDYSSDSGYVGVFGAGTTLTVL
notes: The ELISA detected it with anti-human kappa light chain-HRP; also called 1-65 antibody; clone 1-65
- EC50 (FAM19A5-rabbit Fc [1]): 0.13 nM

B2: Anti-FAM19A5 antibody ("SS01-13-s5") (antibody, V domains shown)
VH: AVTLDESGGGLQTPGGALRLSCKASGFTFSSYQMGWVRQAPGKGLEWVSAINKSGSDTSYGSAVKGRATISRDNGQSTLYLQMNSLRAEDTAVYFCAKGSASYITAATIDAWGHGTEVIVSS
VL: ALTQPSSVSANPGETARITCSGGASSGYGYGWYQQKPSSAPLTVIYKDSERPSDIPSRFSGSSSGSTHTLTISGVQAEDEAVYFCGNDDYSSDSGYVGVFGAGTTLTVL
notes: The ELISA detected it with anti-human kappa light chain-HRP; also called deimmunized clone 1-65; deimmunized 1-65 antibody
- EC50 (FAM19A5-rabbit Fc [1]): 0.38 nM

B3: Anti-FAM19A5 antibody ("S5-SG") (antibody, V domains shown)
VH: AVTLDESGGGLQTPGGALRLSCKASGFTFSSYQMGWVRQAPGKGLEWVSAINKGGSDTSYGSAVKGRATISRDNGQSTLYLQMNSLRAEDTAVYFCAKGSASYITAATIDAWGHGTEVIVSS
VL: ALTQPSSVSANPGETARITCSGGASSGYGYGWYQQKPSSAPLTVIYKDSERPSDIPSRFSGSSSGSTHTLTISGVQAEDEAVYFCGNDDYSSDSGYVGVFGAGTTLTVL
notes: The ELISA detected it with anti-human kappa light chain-HRP; also called deimmunized clone S5-SG; S5-2.GKNG antibody
- EC50 (FAM19A5-rabbit Fc [2]): 0.21 nM
